According to publication PMC5672839, “A novel peptide stapling strategy enables the retention of ring-closing amino acid side chains for the Wnt/β-catenin signalling pathway” (Chemical Science, 2017):
Starred links: 1 amine or outer side, 2 acyl side, 3 side chain; linkers in the order of their positions; H or OH if unused. Positions of bridges follow the written chain, without caps; N, C: chain ends. Non-standard residues stand in square brackets, D forms with d. Residues, ends and D or L forms follow the SMILES beside them. *: point of attachment. FITC = O=C1OC2(c3ccc(O)cc3Oc3cc(O)ccc32)c2ccc(NC(=S)*)cc21; X2 = CC(C)C[C@](CCCC=[*:3])(N[*:1])C(=O)[*:2]; X6 = NCCCC[C@](CCCC=[*:3])(N[*:1])C(=O)[*:2]; X1 = CSCC[C@](CCCC=[*:3])(N[*:1])C(=O)[*:2]; X3 = O=C([C@@](CO)(CCCC=[*:3])N[*:1])[*:2]; X5 = C=CCCC[C@@](CC(C)C)(N[*:1])C(=O)[*:2]; X4 = C=CCCC[C@@](CCSC)(N[*:1])C(=O)[*:2]; R5 = C=CCCC[C@@](C)(N)C(=O)O; S5 = C=CCCC[C@](C)(N)C(=O)O; βAla = NCCC(=O)O

Tests used:
[1] = circular dichroism; conditions: 10 mM phosphate buffer (captions say PBS); pH 7.4; 25 °C; 50 uM
[2] = test system: HEK 293T/17 cells; test: Cell permeability of FITC-labelled peptides by confocal microscopy; assay type: cell-based; conditions: FITC–β-Ala–peptide 40 μM (supplement: 10 µM), 16 h, washed with PBS twice, fixed, confocal fluorescence microscopy
From the text: (§1) Con = non-specific control. […] Scale bar: 50 μm.
We then assessed the cell permeability of the peptides by conjugating fluorescein isothiocyanate (FITC) to Axin (469–482), WNT-3a and WNT-3c (Fig. 3d). […] To explore the detailed binding mode of WNT-3a against β-catenin, we conducted a Z-dock of the WNT-3a–β-catenin complex to predict structural models of the protein–protein complexes.[27] […] Owing to an introduction of the stapling group, Met-481 is closer to the Trp-338 of β-catenin, and thus forms a stronger interaction with that residue. In addition, a stronger salt bridge between the side chain carboxyl group of Asp-474 coordinated with the amino group of β-catenin Lys-292 and a more efficient hydrogen bond between the side chain of His-476 and β-catenin Asp-299 are constructed because of a closer distance geometrically. It is conceivable that these changes enhanced the conformational stability of WNT-3a in its bound state, thereby contributing to the improved binding activity.
(§2) The CD spectra were obtained with
(§3) The measurement parameters
(§4) background subtraction. The curves were smoothed using standard parameters. In addition,
(§5) Figure S3. CD spectra of all peptides.
(§6) concentration of 50 μM. The percent helicity was calculated based on the [θ] 222 value.

[3] = molecular target: α-chymotrypsin (Bos taurus, UniProt P00766); test: Proteolytic stability towards α-chymotrypsin; conditions: α-chymotrypsin 5 ng μL^–1 (supplement: 0.5 ng/µL) in 50 mM PBS pH 7.4 with 2 mM CaCl2, peptide 0.1 mM final, room temperature, 1 h, analytical HPLC, duplicate independent experiments
[4] = Circular dichroism (CD) analysis, percent helicity from [θ]222; assay type: physicochemical; conditions: peptide 50 μM in phosphate buffer (10 mM, pH 7.4), 25 °C, 1 mm cuvette, calculated from [θ]222
Description: as §1, §2, §3, §4, §5, §6

[5] = test system: Wnt/β-catenin dependent transcriptional activity; test: Topflash-luciferase reporter, Wnt3a-induced expression; assay type: cell-based; conditions: Wnt3a conditioned medium, peptide 40 μM, 12 h; for Wnt3a-induced Topflash reporter expression, comparison in words: HEK293T cells transfected with Topflash-luciferase
From the text: We next explored the effects of these peptides on Wnt/β-catenin dependent transcriptional activity. The Topflash reporter, in which firefly luciferase is transcriptionally activated by β-catenin, was employed. […] Con = non-specific control. […] Scale bar: 50 μm.

[6] = in vitro; conditions: isolated enzyme chymotrypsin, pH 7.4

| Molecule | helicity [1] [%] | also measured |
| --- | --- | --- |
| C=CCCC[C@@](CCSC)(NC(=O)[C@@H](NC(=O)[C@H](CCCNC(=N)N)NC(=O)[C@](C)(CCCC=C)NC(=O)[C@@H](NC(=O)[C@H](Cc1c[nH]cn1)NC(=O)[C@H](CCC(=O)O)NC(=O)[C@H](CC(=O)O)NC(=O)[C@H](CC(C)C)NC(=O)[C@@H](NC(=O)[C@H](CO)NC(=O)[C@H](CCC(=O)O)NC(=O)[C@@H]1CCCN1C(C)=O)[C@@H](C)CC)C(C)C)C(C)C)C(=O)N[C@@H](CCCCN)C(N)=O (Ac-PESILDEHV[S5]RV[X4]K-NH2) | 49.9 | – |
| CC[C@H](C)[C@H](NC(=O)[C@H](CO)NC(=O)[C@H](CCC(=O)O)NC(=O)[C@@H]1CCCN1C(C)=O)C(=O)N[C@@H](CC(C)C)C(=O)N[C@@H](CC(=O)O)C(=O)N[C@@H](CCC(=O)O)C(=O)N[C@@H](Cc1c[nH]cn1)C(=O)N[C@]1(C)CCCC=CCCC[C@](C)(C(=O)N[C@@H](CCCCN)C(N)=O)NC(=O)[C@H](C(C)C)NC(=O)[C@H](CCCNC(=N)N)NC(=O)[C@H](CCC(N)=O)NC1=O (Ac-PESILDEH[R5]QRV[R5]K-NH2; staple 9-13) | 35.4 | – |
| CC[C@H](C)[C@H](NC(=O)[C@H](CO)NC(=O)[C@H](CCC(=O)O)NC(=O)[C@@H]1CCCN1C(C)=O)C(=O)N[C@@H](CC(C)C)C(=O)N[C@@H](CC(=O)O)C(=O)N[C@@H](CCC(=O)O)C(=O)N[C@@H](Cc1c[nH]cn1)C(=O)N[C@@]1(C)CCCC=CCCC[C@@](C)(C(=O)N[C@@H](CCCCN)C(N)=O)NC(=O)[C@H](C(C)C)NC(=O)[C@H](CCCNC(=N)N)NC(=O)[C@H](CCC(N)=O)NC1=O (Ac-PESILDEH[S5]QRV[S5]K-NH2; staple 9-13) | 64.7 | – |
| CC[C@H](C)[C@H](NC(=O)[C@H](CO)NC(=O)[C@H](CCC(=O)O)NC(=O)[C@@H]1CCCN1C(C)=O)C(=O)N[C@]1(C)CCCC=CCCC[C@@](C)(C(=O)N[C@H](C(=O)N[C@@H](CCC(N)=O)C(=O)N[C@@H](CCCNC(=N)N)C(=O)N[C@H](C(=O)N[C@@H](CCSC)C(=O)N[C@@H](CCCCN)C(N)=O)C(C)C)C(C)C)NC(=O)[C@H](CCC(=O)O)NC(=O)[C@H](CC(=O)O)NC1=O (Ac-PESI[R5]DE[S5]VQRVMK-NH2; staple 5-8) | 36.8 | – |
| C=CCCC[C@@](CC(C)C)(NC(=O)[C@@H](NC(=O)[C@H](CO)NC(=O)[C@H](CCC(=O)O)NC(=O)[C@@H]1CCCN1C(C)=O)[C@@H](C)CC)C(=O)N[C@@H](CC(=O)O)C(=O)N[C@@H](CCC(=O)O)C(=O)N[C@@H](Cc1c[nH]cn1)C(=O)N[C@](C)(CCCC=C)C(=O)N[C@@H](CCC(N)=O)C(=O)N[C@@H](CCCNC(=N)N)C(=O)N[C@H](C(=O)N[C@@H](CCSC)C(=O)N[C@@H](CCCCN)C(N)=O)C(C)C (Ac-PESI[X5]DEH[R5]QRVMK-NH2) | 21.6 | – |
| CC[C@H](C)[C@@H]1NC(=O)[C@](C)(NC(=O)[C@H](CCC(=O)O)NC(=O)[C@@H]2CCCN2C(C)=O)CCCC=CCCC[C@@](C)(C(=O)N[C@@H](CCC(=O)O)C(=O)N[C@@H](Cc2c[nH]cn2)C(=O)N[C@H](C(=O)N[C@@H](CCC(N)=O)C(=O)N[C@@H](CCCNC(=N)N)C(=O)N[C@H](C(=O)N[C@@H](CCSC)C(=O)N[C@@H](CCCCN)C(N)=O)C(C)C)C(C)C)NC(=O)[C@H](CC(C)C)NC1=O (Ac-PE[R5]IL[S5]EHVQRVMK-NH2; staple 3-6) | 40 | – |
| CC[C@H](C)[C@@H]1NC(=O)[C@](CO)(NC(=O)[C@H](CCC(=O)O)NC(=O)[C@@H]2CCCN2C(C)=O)CCCC=CCCC[C@](C)(C(=O)N[C@@H](Cc2c[nH]cn2)C(=O)N[C@H](C(=O)N[C@@H](CCC(N)=O)C(=O)N[C@@H](CCCNC(=N)N)C(=O)N[C@H](C(=O)N[C@@H](CCSC)C(=O)N[C@@H](CCCCN)C(N)=O)C(C)C)C(C)C)NC(=O)[C@H](CC(=O)O)NC(=O)[C@H](CC(C)C)NC1=O (Ac-PE[X3]ILD[R5]HVQRVMK-NH2; staple 3-7) | 24.8 | – |
| CC[C@H](C)[C@@H]1NC(=O)[C@](CO)(NC(=O)[C@H](CCC(=O)O)NC(=O)[C@@H]2CCCN2C(C)=O)CCCC=CCCC[C@@](C)(C(=O)N[C@@H](CCC(=O)O)C(=O)N[C@@H](Cc2c[nH]cn2)C(=O)N[C@H](C(=O)N[C@@H](CCC(N)=O)C(=O)N[C@@H](CCCNC(=N)N)C(=O)N[C@H](C(=O)N[C@@H](CCSC)C(=O)N[C@@H](CCCCN)C(N)=O)C(C)C)C(C)C)NC(=O)[C@H](CC(C)C)NC1=O (Ac-PE[X3]IL[S5]EHVQRVMK-NH2; staple 3-6) | 51.3 | – |
| CC[C@H](C)[C@H](NC(=O)[C@H](CO)NC(=O)[C@H](CCC(=O)O)NC(=O)[C@@H]1CCCN1C(=O)CCNC(=S)Nc1ccc2c(c1)C(=O)OC21c2ccc(O)cc2Oc2cc(O)ccc21)C(=O)N[C@@H](CC(C)C)C(=O)N[C@@H](CC(=O)O)C(=O)N[C@@H](CCC(=O)O)C(=O)N[C@@H](Cc1c[nH]cn1)C(=O)N[C@H](C(=O)N[C@@H](CCC(N)=O)C(=O)N[C@@H](CCCNC(=N)N)C(=O)N[C@H](C(=O)N[C@@H](CCSC)C(=O)N[C@@H](CCCCN)C(N)=O)C(C)C)C(C)C [FITC–β-Ala–Axin (469–482)] ({FITC-βAla}-PESILDEHVQRVMK-NH2) | – | cell permeability [2]: also penetrated the cell membrane |
| CC[C@H](C)[C@H](NC(=O)[C@H](CO)NC(=O)[C@H](CCC(=O)O)NC(=O)[C@@H]1CCCN1C(C)=O)C(=O)N[C@@H](CC(C)C)C(=O)N[C@@H](CC(=O)O)C(=O)N[C@@H](CCC(=O)O)C(=O)N[C@@H](Cc1c[nH]cn1)C(=O)N[C@]1(C)CCCC=CCCC[C@](CCSC)(C(=O)N[C@@H](CCCCN)C(N)=O)NC(=O)[C@H](C(C)C)NC(=O)[C@H](CCCNC(=N)N)NC(=O)[C@H](CCC(N)=O)NC1=O [WNT-3a] (Ac-PESILDEH[R5]QRV[X1]K-NH2; staple 9-13) | 42.3 | degradation by α-chymotrypsin [3]: completely stable and no degradation was observed even after 1 h |
| CC[C@H](C)[C@H](NC(=O)[C@H](CO)NC(=O)[C@H](CCC(=O)O)NC(=O)[C@@H]1CCCN1C(C)=O)C(=O)N[C@]1(CC(C)C)CCCC=CCCC[C@@](C)(C(=O)N[C@H](C(=O)N[C@@H](CCC(N)=O)C(=O)N[C@@H](CCCNC(=N)N)C(=O)N[C@H](C(=O)N[C@@H](CCSC)C(=O)N[C@@H](CCCCN)C(N)=O)C(C)C)C(C)C)NC(=O)[C@H](CCC(=O)O)NC(=O)[C@H](CC(=O)O)NC1=O [WNT-6a] (Ac-PESI[X2]DE[S5]VQRVMK-NH2; staple 5-8) | 70.9 | α-Helicity [4]: 70.87%; Wnt3a-induced Topflash reporter expression, comparison in words [5]: enhanced the Wnt3a-induced reporter expression more effectively than Axin (469–482); fold enhancement of Wnt3a-induced reporter expression ([5]; HEK293T cells, Topflash-luciferase, compared with Axin (469–482)): three-fold enhancement |
| CC[C@H](C)[C@H](NC(=O)[C@H](CO)NC(=O)[C@H](CCC(=O)O)NC(=O)[C@@H]1CCCN1C(C)=O)C(=O)N[C@@H](CC(C)C)C(=O)N[C@@H](CC(=O)O)C(=O)N[C@@H](CCC(=O)O)C(=O)N[C@@H](Cc1c[nH]cn1)C(=O)N[C@H](C(=O)N[C@@H](CCC(N)=O)C(=O)N[C@@]1(C)CCCC=CCCC[C@](CCCCN)(C(N)=O)NC(=O)[C@H](CCSC)NC(=O)[C@H](C(C)C)NC1=O)C(C)C [WNT-8a] (Ac-PESILDEHVQ[S5]VM[X6]-NH2; staple 11-14) | – | Wnt3a-induced Topflash reporter expression, comparison in words [5]: enhanced the Wnt3a-induced reporter expression more effectively than Axin (469–482) |
| Ac-PESILDEHVQRVMK-NH2 [Axin (469–482)] | 19.6 | half-life at 0.1 mM [6]: 9 min |
